Test results as given in paper PMC7382298 (Immunity, 2020).

Tests used:
[1] = molecular target: the molecule itself; experiment: crystal structure
[2] = molecular target: T1, GST-Human GSDMD harboring truncation of residues 243-278 (human, UniProt P57764 1-484, truncation of residues 243-278); experiment: pull-down
T1 sequence (looked up): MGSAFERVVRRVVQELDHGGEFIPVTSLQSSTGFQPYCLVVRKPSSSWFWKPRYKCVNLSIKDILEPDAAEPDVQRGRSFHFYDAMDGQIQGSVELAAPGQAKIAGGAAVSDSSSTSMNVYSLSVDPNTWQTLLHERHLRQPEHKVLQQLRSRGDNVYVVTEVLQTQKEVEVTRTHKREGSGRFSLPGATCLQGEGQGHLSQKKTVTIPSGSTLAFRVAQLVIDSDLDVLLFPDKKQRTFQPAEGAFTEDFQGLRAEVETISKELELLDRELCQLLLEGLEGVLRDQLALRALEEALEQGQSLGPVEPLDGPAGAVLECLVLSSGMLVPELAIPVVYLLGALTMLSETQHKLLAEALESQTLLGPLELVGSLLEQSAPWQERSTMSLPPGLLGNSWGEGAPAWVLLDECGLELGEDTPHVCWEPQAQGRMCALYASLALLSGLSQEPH

[3] = molecular target: T2, GST-Mouse full-length GSDMD harboring V367A/E369K mutations (mouse, UniProt Q9D8T2 1-487, V367A | E369K); experiment: pull-down
T2 sequence (looked up): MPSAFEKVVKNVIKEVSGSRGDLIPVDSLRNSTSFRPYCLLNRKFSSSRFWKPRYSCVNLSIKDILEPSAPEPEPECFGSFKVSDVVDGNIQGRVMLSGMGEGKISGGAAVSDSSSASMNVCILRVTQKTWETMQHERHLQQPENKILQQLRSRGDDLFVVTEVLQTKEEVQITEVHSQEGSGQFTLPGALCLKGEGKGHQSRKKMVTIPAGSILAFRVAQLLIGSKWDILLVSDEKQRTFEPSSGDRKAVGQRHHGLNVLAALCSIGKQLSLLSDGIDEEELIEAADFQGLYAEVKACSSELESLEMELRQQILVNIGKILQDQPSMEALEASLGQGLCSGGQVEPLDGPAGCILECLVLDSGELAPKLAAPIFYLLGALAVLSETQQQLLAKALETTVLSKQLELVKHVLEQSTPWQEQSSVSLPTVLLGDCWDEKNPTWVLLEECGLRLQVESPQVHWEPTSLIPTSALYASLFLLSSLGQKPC

[4] = molecular target: T3, GST-Mouse full-length wild type GSDMD (mouse, UniProt Q9D8T2 1-487); experiment: pull-down
T3 sequence (looked up): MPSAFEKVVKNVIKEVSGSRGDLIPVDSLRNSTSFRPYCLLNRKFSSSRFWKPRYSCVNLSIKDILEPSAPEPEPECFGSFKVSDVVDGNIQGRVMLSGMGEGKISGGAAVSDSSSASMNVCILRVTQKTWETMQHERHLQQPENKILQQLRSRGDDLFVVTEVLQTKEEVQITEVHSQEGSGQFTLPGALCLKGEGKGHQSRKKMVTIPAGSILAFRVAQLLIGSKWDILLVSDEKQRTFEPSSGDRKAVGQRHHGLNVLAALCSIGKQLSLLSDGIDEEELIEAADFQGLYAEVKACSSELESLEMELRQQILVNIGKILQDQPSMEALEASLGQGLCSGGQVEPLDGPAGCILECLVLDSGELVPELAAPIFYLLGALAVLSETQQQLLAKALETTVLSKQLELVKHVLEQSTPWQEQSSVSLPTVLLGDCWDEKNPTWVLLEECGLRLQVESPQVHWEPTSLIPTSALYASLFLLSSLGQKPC

[5] = molecular target: T4, GST-Mouse full-length GSDMD harboring L306A/L310A mutations (2A mutant) (mouse, UniProt Q9D8T2 1-487, L306A | L310A); experiment: pull-down
T4 sequence (looked up): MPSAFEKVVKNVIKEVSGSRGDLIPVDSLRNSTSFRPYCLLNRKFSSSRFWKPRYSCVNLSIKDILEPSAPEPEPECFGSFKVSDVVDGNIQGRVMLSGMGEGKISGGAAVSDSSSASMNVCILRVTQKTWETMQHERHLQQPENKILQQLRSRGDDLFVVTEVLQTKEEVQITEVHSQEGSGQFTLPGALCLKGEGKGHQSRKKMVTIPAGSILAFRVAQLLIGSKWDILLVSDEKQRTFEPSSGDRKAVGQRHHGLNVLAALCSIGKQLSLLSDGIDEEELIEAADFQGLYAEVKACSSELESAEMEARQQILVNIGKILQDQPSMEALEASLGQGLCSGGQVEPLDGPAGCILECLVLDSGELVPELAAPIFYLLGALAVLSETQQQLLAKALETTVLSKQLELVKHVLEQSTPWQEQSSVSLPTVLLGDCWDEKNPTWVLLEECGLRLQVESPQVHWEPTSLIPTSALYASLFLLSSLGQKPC

[6] = molecular target: T5, GST-Mouse full-length GSDMD harboring E369K/L370A mutations (mouse, UniProt Q9D8T2 1-487, E369K | L370A); experiment: pull-down
T5 sequence (looked up): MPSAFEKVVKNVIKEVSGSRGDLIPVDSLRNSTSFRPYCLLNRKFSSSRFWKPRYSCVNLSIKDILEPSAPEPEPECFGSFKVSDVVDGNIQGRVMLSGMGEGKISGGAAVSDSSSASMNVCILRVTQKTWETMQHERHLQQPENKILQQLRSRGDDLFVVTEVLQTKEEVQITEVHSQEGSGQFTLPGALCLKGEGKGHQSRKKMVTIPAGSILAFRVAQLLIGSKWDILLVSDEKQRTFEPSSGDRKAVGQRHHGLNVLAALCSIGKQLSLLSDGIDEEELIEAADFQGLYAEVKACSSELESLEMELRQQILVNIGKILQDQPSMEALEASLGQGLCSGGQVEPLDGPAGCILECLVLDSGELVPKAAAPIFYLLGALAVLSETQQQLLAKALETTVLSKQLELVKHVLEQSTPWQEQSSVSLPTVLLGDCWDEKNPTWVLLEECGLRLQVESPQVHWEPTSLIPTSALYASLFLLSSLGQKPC

[7] = molecular target: T6, GST-Mouse full-length GSDMD harboring L361A/V367A/L370A mutations (3A mutant) (mouse, UniProt Q9D8T2 1-487, L361A | V367A | L370A); experiment: pull-down
T6 sequence (looked up): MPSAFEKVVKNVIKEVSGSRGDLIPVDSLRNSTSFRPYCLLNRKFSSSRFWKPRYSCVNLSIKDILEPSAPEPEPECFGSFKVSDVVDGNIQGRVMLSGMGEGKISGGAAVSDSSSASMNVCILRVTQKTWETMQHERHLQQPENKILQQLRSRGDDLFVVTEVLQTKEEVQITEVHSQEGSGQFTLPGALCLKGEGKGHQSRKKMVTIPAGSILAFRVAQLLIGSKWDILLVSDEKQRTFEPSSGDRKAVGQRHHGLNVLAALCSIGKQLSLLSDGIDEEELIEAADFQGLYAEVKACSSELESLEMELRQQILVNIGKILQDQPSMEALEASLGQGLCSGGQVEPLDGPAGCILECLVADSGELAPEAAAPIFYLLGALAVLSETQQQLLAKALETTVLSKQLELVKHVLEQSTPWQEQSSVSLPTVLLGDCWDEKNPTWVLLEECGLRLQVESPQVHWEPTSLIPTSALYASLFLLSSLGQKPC

[8] = molecular target: T7, GST-Human full-length wild type GSDMD (human, UniProt P57764 1-484); experiment: pull-down
T7 sequence (looked up): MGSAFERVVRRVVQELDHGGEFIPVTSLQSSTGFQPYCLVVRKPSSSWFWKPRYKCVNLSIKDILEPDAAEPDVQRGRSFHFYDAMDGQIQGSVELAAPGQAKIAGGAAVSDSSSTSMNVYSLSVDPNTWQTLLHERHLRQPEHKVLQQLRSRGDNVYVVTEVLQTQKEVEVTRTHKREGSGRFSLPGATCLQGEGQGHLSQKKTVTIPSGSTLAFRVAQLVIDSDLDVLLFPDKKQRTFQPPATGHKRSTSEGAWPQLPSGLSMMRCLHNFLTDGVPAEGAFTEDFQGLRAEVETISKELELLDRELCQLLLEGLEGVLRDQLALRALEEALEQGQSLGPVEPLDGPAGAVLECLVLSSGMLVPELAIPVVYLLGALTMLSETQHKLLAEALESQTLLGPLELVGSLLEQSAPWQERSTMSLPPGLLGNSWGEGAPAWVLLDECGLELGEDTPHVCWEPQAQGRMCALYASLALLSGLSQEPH

[9] = molecular target: T8, mouse full-length wild type gasdermin D (mGSDMD) (mouse, UniProt Q9D8T2 1-487); experiment: SEC
T8 sequence (looked up): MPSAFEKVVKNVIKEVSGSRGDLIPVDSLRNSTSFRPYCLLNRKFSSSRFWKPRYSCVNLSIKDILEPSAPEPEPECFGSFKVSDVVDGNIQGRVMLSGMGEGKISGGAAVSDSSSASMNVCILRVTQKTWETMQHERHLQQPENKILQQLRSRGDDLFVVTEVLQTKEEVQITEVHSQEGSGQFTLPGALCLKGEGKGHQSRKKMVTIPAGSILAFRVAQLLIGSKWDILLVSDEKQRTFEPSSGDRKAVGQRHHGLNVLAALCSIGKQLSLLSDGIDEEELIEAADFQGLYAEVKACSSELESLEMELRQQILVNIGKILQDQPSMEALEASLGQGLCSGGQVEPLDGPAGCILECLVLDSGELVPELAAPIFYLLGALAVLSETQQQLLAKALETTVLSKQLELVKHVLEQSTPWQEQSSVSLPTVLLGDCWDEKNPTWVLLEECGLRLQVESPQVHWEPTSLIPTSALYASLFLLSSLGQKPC

[10] = molecular target: T9, human full-length wild type gasdermin D (hGSDMD) (human, UniProt P57764 1-484); experiment: SEC
T9 sequence (looked up): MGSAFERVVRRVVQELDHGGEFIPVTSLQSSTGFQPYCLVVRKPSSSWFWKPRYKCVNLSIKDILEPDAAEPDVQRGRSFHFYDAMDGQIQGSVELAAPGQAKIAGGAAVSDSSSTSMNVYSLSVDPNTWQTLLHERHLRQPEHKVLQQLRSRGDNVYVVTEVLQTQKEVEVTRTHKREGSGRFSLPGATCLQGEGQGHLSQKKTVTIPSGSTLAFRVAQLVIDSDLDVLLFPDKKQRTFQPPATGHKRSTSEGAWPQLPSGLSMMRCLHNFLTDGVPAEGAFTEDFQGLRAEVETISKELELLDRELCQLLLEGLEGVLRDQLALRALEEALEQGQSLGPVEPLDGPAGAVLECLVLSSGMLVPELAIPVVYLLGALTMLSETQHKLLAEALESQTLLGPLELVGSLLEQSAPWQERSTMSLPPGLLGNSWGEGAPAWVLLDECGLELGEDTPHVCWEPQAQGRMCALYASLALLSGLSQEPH

[11] = molecular target: T10, human GSDMD harboring truncation of residues 243-278 (human, UniProt P57764 1-484, truncation of residues 243-278); experiment: SEC
T10 sequence (looked up): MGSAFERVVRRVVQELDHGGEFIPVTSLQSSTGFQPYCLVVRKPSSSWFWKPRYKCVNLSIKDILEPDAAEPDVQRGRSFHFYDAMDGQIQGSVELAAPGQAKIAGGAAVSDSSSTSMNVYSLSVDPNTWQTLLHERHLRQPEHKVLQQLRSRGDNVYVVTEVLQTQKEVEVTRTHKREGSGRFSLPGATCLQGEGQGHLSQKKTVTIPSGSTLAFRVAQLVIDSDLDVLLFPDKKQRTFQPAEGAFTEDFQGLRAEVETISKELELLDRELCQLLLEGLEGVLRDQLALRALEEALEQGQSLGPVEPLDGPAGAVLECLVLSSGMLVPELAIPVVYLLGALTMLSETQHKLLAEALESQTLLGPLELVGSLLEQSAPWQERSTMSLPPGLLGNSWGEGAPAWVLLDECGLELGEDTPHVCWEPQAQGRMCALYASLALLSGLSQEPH

Measured: binding result

B1: human caspase-1 (hCASP1) catalytic domain p22/p10, C285A mutant (enzyme)
chain 1: NPAMPTSSGSEGNVKLCSLEEAQRIWKQKSAEIYPIMDKSSRTRLALIICNEEFDSIPRRTGAEVDITGMTMLLQNLGYSVDVKKNLTASDMTTELEAFAHRPEHKTSDSTFLVFMSHGIREGICGKKHSEQVPDILQLNAIFNMLNTKNCPSLKDKPKVIIIQAARGDSPGVVWFKDSVGVSGNLSLPTTEEFEDD
chain 2: AIKKAHIEKDFIAFCSSTPDNVSWRHPTMGSVFIGRLIEHMQEYACSCDVEEIFRKVRFSFEQPDGRAQMPTTERVTLTRCFYLFPGH
binds: all assays above
